Two molecules from PMC4995099, “Drosophila Nanos acts as a molecular clamp that modulates the RNA-binding and repression activities of Pumilio” can be followed below.

In data set [1] the target is T1, Pum PUM-HD WT (EMSA) (UniProt P25822 1091-1426).
T1 sequence: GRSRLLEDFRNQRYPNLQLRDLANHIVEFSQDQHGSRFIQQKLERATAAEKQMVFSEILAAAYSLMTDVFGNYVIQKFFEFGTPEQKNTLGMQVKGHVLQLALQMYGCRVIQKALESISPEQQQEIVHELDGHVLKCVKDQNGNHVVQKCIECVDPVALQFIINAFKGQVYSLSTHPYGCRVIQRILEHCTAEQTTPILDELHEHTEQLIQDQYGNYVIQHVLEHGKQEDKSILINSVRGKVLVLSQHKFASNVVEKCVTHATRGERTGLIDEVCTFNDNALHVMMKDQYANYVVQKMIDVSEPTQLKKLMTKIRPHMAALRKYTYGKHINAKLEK
Kind of data set: EMSA; EMSA: 50 mM Tris-HCl pH 7.6, 150 mM NaCl, 2 mM DTT, 2 ug/mL BSA, 0.01% Igepal CA-630, 0.02% bromophenol blue, 20% glycerol, 3 h at 4 C; 1 nM Cy5 RNA or 0.3 nM 32P RNA. To be noted: protein: recombinant; tags: N-terminal 3xFLAG; Halo-tag removed by TEV; label: 5' Cy5.

The target in the next data set is T2, Nos ZC WT (EMSA) (UniProt P25724 289-401).
T2 sequence: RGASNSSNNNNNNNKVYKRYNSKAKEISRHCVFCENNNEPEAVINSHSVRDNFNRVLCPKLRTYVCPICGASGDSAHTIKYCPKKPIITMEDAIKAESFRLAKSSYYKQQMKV
Briefly: EMSA; up to 1 uM Nos ZC; EMSA: 50 mM Tris-HCl pH 7.6, 150 mM NaCl, 2 mM DTT, 2 ug/mL BSA, 0.01% Igepal CA-630, 0.02% bromophenol blue, 20% glycerol, 3 h at 4 C; 1 nM Cy5 RNA or 0.3 nM 32P RNA. To be noted: protein: recombinant; tags: C-terminal V5; Halo-tag removed by TEV; label: 5' Cy5. Background: A gel shift assay detects complexes by their altered migration in electrophoresis.

Another data set concerns the target T3, Pum F1367S (UniProt P25822 1091-1426, F1367S).
T3 sequence: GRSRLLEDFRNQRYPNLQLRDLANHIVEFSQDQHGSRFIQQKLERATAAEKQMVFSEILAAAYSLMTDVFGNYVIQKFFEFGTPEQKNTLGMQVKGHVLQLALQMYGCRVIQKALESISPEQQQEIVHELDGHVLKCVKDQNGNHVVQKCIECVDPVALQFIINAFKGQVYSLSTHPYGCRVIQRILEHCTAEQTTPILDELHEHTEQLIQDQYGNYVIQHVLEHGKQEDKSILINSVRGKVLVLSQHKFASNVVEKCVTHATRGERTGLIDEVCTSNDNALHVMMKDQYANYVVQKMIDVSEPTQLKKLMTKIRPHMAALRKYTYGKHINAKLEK
Kind of data set: EMSA; RNA label form not stated; EMSA: 50 mM Tris-HCl pH 7.6, 150 mM NaCl, 2 mM DTT, 2 ug/mL BSA, 0.01% Igepal CA-630, 0.02% bromophenol blue, 20% glycerol, 3 h at 4 C; 1 nM Cy5 RNA or 0.3 nM 32P RNA. To be noted: protein: recombinant; tags: N-terminal 3xFLAG; Halo-tag removed by TEV; label: 5' Cy5.

Another data set concerns the target T4, Pum Q1337A (UniProt P25822 1091-1426, Q1337A).
T4 sequence: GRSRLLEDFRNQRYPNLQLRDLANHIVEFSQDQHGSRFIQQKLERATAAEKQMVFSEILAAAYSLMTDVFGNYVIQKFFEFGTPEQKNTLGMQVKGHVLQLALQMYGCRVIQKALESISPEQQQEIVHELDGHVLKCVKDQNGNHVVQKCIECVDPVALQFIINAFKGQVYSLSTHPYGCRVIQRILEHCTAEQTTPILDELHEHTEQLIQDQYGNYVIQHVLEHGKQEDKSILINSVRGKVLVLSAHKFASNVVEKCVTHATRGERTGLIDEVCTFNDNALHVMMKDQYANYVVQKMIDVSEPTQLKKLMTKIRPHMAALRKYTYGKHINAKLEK
The description is as above. To be noted: protein: recombinant; tags: N-terminal 3xFLAG; Halo-tag removed by TEV; label: 5' Cy5.

The target in data set [2] is T5, Pum PUM-HD WT (EMSA);Nos ZC WT (EMSA) (Drosophila melanogaster?;Drosophila …, UniProt P25822;P25724 1091-1426;289-401, |).
T5 sequence 1: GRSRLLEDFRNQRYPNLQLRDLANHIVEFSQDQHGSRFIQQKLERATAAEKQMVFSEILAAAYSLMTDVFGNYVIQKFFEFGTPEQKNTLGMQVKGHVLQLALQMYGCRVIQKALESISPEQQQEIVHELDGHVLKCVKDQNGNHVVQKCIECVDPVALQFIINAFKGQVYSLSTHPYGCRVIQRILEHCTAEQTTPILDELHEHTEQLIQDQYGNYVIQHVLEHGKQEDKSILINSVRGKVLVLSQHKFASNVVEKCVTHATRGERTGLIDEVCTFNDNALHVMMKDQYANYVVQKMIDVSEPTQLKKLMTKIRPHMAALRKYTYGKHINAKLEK
T5 sequence 2: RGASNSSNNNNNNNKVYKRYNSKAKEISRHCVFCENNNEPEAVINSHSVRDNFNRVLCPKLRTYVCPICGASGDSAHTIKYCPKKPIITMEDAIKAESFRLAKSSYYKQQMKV
Briefly: EMSA; Nos ZC titrated at 100 nM Pum; high affinity, Kd only in figure; EMSA: 50 mM Tris-HCl pH 7.6, 150 mM NaCl, 2 mM DTT, 2 ug/mL BSA, 0.01% Igepal CA-630, 0.02% bromophenol blue, 20% glycerol, 3 h at 4 C; 1 nM Cy5 RNA or 0.3 nM 32P RNA. To be noted: protein: recombinant;recombinant, tags: N-terminal 3xFLAG, Halo-tag removed by TEV;C-terminal V5, copies: 1;1, label: 5' Cy5.

In data set [3] the target is T5, Pum PUM-HD WT (EMSA);Nos ZC WT (EMSA). Briefly: EMSA; Pum titrated, 400 nM Nos ZC constant; EMSA: 50 mM Tris-HCl pH 7.6, 150 mM NaCl, 2 mM DTT, 2 ug/mL BSA, 0.01% Igepal CA-630, 0.02% bromophenol blue, 20% glycerol, 3 h at 4 C; 1 nM Cy5 RNA or 0.3 nM 32P RNA. The settings on record: protein: recombinant;recombinant, tags: N-terminal 3xFLAG, Halo-tag removed by TEV;C-terminal V5, copies: 1;1, label: 5' 32P (EMSA), none (crystal).

The target of data set [4] is T1, Pum PUM-HD WT (EMSA). Kind of data set: EMSA; Pum alone; Kd printed only in figure; EMSA: 50 mM Tris-HCl pH 7.6, 150 mM NaCl, 2 mM DTT, 2 ug/mL BSA, 0.01% Igepal CA-630, 0.02% bromophenol blue, 20% glycerol, 3 h at 4 C; 1 nM Cy5 RNA or 0.3 nM 32P RNA. The settings on record: protein: recombinant; tags: N-terminal 3xFLAG; Halo-tag removed by TEV; label: 5' 32P (EMSA); none (crystal).

As for UUGUUGUCGAAAAUUGUACAUAAGCC (ssRNA) [Cy5-hb NRE2 RNA], the binding result with Pum PUM-HD WT (EMSA) [1] is listed as “binds”; with Nos ZC WT (EMSA) it was “no binding”; with Pum F1367S it was “binds”; with Pum Q1337A, “binds”; in data set [2] it was “binds”.

For orientation: Kd means the constant that tells how readily two partners part at equilibrium. Regarding AAAUUGUACAUAAGCC (ssRNA) [hb NRE2 RNA 16-nt], the Kd in data set [3] worked out at 8.7 nM. Further, the “fold weaker RNA-binding affinity (Kd ratio)” value with Pum PUM-HD WT (EMSA) [4] is 3 fold weaker than with Nos ZC.
